Assay: yeast display, Sf9 membrane polyspecificity reagent, FACS + sequencing; frameworks hold sequencing errors
Summary of the method: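 Sorting gates, low and high (top ~1%), were placed on anti-HA fluorescence to track expression and on streptavidin fluorescence to track reagent binding. A clone's polyreactivity label is taken from the gate it came out of. The reagent was 10% biotinylated, detergent-solubilized Sf9 membrane, applied for 1 hour at 4 °C to galactose-induced yeast display cells.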

Row | Sequence | polyreactivity (PSR sort gate)
1 | QVQLVESGGGLVQAGGSLRLSCAASGFTITRYAMGWYRQAPGKERELVAAISKSGGSTFYADSVKGRFTISRDNAKNTVYLQMNSLKPEDTAVYYCAKVLRAKNSFDYWGQGTQVTVSS | high polyreactivity
2 | QVQLVESGGGLVQAGGSLRLSCAASGSIFTINAMGWYRQAPGIERALVAAIRSGGGTNYADSVKGRFTISRDNAKNTVYFQMNSLKPEDTAVYYCAADLWAGKYGEYDYWGQGTQVTVSS | high polyreactivity
3 | QVQLVESGGGLVQAGGSLRLSCAASGRTYHAYAMGWYRQAPGKGRELVAAITRTGTTHYADSVKGRFTISRDNAKNTVYLQMNSLKPEETAVYYCNKATQFYQWGASPYYPRRDYWGQGTQVTVSS | low polyreactivity
4 | QVQLVESGGGLVQAGGSLSLICAASGNTFPPYAMGWYRQAPGKERELVAAISCGGRTYYADSVKGRFTISRDNAKNTVYLQMNSLTPEDTAVYYCAVYVPNYYSYHYDYWGQGTQVTVSS | high polyreactivity
5 | QVQLQESGGGLVQASGSLRLSCAASGNIFPDYVMGWYRLAPGKEREFVANITGGSTTNYADSVKGRFTIIRDNAKNTVYLQMNSLKAEDTAVYYCAVNFGTVVLYLYWGQGTQVTVSS | high polyreactivity
6 | QVQLVESGGGLVQAGGSLRLSCAASGSTFTNYAMGWYRQAPGKERELVAGISRSGGTTYYADSVKGRFTISRDNVKNTVYLQMNSLKPEDTAVYYCAAVGYFGGYRYDYWGQGTQVTVSS | high polyreactivity
7 | QVQIVESGGGLVQAGGSLRLSCAASGSTFNRNAMGWNRQATGKERELVAAITRSASSTYYADSVKGRFTISRDNAKNTVYLQMNSLKPEDTAVYYCAVEYVAYLYRMDYWGQGTQVTVSS | high polyreactivity
8 | QVQLVESGGGLVQAGGSLRLSCAASGRTFVSYAMGWYRQAPGKERELVADITIGGSTNYADSVKGRFTISRDNAKNTVYLLMNSLKPEDTAVYDCAAYYSYPWDTVTTVDLYDYWGQGTQVTVSS | low polyreactivity
9 | QVHLVESGGGLVQAGGSLRLSCAASGSTIDRYAMGWYRQAPGKERELVASISKRGGSTYYADSVKGRFTISRDNAKNTVYLQMNSLKPEDTAVYYCAAKWASQYDYWGQGTQVTVSS | high polyreactivity
10 | QVQLVESGGGLVQAGGSLRLSCAASGFIFGYNAMGWYRQAPGKERELVAAITWIGGTTYYADSVKGRFTISRDNAKNTVYLQMNSLKPEDTAVYYCARQRSYGRSSYSYGYDYWGQGTQVTVSS | high polyreactivity
11 | QVQLVESGGGLVQAGGSLRLTCAASGRTFRQYAMGWYRQAPGKERELVAAIRTNGGRTYYADSVKGRFTISRDYAKNTVYLQFNSLKPEDTAVYYCAVYAVVQGVLFDYWGQGTQVTVSS | high polyreactivity
12 | QVQLVESGGGLVQAGCSLRLSCAASGRTFRYYAMGWYRQAPGKERELVAAISGRGGSTYYADSVKGRFTISRDNAKNTVYFQMNSLKPEDTAVYYCADSFYSIRYDYWGQGTQVTVSS | high polyreactivity
13 | QVQLVESGGGLVQAGGSLRLSCAASGSTFYGYAMGWYRQAPGKERELVAVISRSGGSTYYADSVKGRFTISRDNAKNTVYLQMNILKPEDTAVYYCNARWSFSYTVWVDSYWGLDDYWGQGTQVTVSS | high polyreactivity
14 | QVQLVESGGGLVQAGGSLRLSCAASGFTVNNNGMGWYIQAPGKERELVASISSRTTSTYYADSVKGRFTFSRDKAKNTDYFQTNSLKPEDTAVYYCAAQAWWDGEYDYWGQGTQVTVSS | high polyreactivity
15 | QVQLVESGGGLVQAGGILRLSCAASGSIFAGYAMGWYRQAPGKERELVAVITWRTDITYADSVKGRFTISRDNAKNTDYLHMNSLKPDDTAVYYCAADSDSTTRLFGDEYWGQGTQVTVSS | low polyreactivity
16 | QVQLVESGRGLVQAGGSLRLSCAASGRIFGINAMGGYRQAPGKERELVAPITSGVSTNYADSVKGRFTISRDNAKNTVYLQMNSLKPGDTAVYYCAARPRWYFFSYGRQDYGYWGQGTQVTVSS | low polyreactivity

Row | Sequence | polyreactivity (PSR sort gate)
17 | QVQLVESGGGLVQAGGSLRLSCAASGRIFWYYDMGWYRQAPGKERELVAAISQRGGSTYYADSVKGRFTISRDNAKNTVYLQMKSLKPEDTAVYYCAKRNPYWATREYWGLGTQVTVSS | high polyreactivity
18 | QGQLVESGGGLVQAGGSLRLSCAASGNTFNVYAMGWYRQAPGKARELVAAITLSGGSTYYADSVKGRFTISRDNSKNTVYLQMNSLKPEDTAFYYCNAEEDGTDYDYWGQGTQVTVSS | low polyreactivity
19 | QVQLVESGGGLVQAGGSLRLSCAASGRTFFKYAMGWYRQAPGKERELVAAISSVGSTYYADSVKGRFTISRDNAKNSVYLQMNSLKPEDTAVYYCAARKNRAYGYWGQGTQVTVSS | high polyreactivity
20 | QVQLVESGGGLVQAGGSLRLSCAASGRTFGYYAMGWYRQAPGKERELVAAISTSGGGTYYADSVKGRFTISRDNAKYTVYLQMNSLKPVDTAVYYCARDRNTRYKFDYWGQGTQVTLSS | low polyreactivity
21 | QVQLVESGGGLVQAGGSLRLSCAASGRILRYNAMGWYRQAAGKERELVAAISSGGSTYADSVKGRFTISRDNAKNTVYLQMNSLKPDDTAVYYCNAPSVGAAFDYWGQGTQVTVSS | high polyreactivity
22 | QVQLVESGGGLVQAGGSLRLSCAASGRIYGYAMGWYRQAPGKESELVAVITTSGGRTYYADSVKGRFTISRDNAKNTVYLQMNSLKPEDNAVYYCNVGKPSRRSYGTLIPAALYDSWGQGTQVTVSS | high polyreactivity
23 | QVQLEESGGGLVQAGGSLRLSCAASGFTFALYAMGWYRPAPRNEMEFVAAISRRGGSTYYADSVKGRFTISRDNAKNTVYLQMNSLKPEDTAVYYCAANYPFGVYHGAPYGYWGQGTQVTVSS | high polyreactivity
24 | QVQLVESGGGLVQAGGSLRLSCAASGFLFYYYAMGWYRQAPGKEREFVAAIRWNGGSTYYADSVKGRFTISRDNAKNTVYLQMNSLKPEDTAVYYCAAVWVQTTYADLYKYYYWGQGTQVTVSS | low polyreactivity
25 | QVQLVESGGGLVQAGGSLRLSCAASGSTFDYNTMGWYRQAPGKERELVADITLRGASTYYADSVKGRFTISRDNAKNTVYLLMNSLKPEDTAVYYCNADYYWGTYANFDYWGQGTQVTVSS | low polyreactivity
26 | QVHLVESGGGLVQAGGSLRLSCAASGFIYWAYAMGWYRQAPGKERELVAGITRSGGSTYYADSVKGRFTISRDNAKNTVYLQMNSLKPEDTAVYYCAADFRYNGGYWGQGTQVTVSS | high polyreactivity
27 | QVQLVESGGGLVQAGGSLRLSCAASGFIFGDYAMGWYRQAPGKEGELVAAIRGSDSTTYYADSVKGRFTISRDNAKNTVYLQMNSLKPEDTAVYYCAAVGVVPLKKSARVYYWGQGTQVTVSS | low polyreactivity
28 | QVQLVESGGGLVQAGGSLRLSCAASGFTFGFNDMGWYRQAPGKERELVAAITIGGTTNYADSVKGRFTISRDNAKNTVYLQMNSLKPEDTAVYSCAADTRVVYDEDYWGQGTQVTVSS | low polyreactivity
29 | QVQLVESGGGLVQAGGSLRLSCAASGGTFGLNAMGWYRQAPGKERELVAAITVTGGSDTYYADSVKGRFTISRDNAKNTVYLQMNSLKPEDTAVYYCAADIGKLYDYWGQGTQVTVSS | low polyreactivity
30 | QVQLVESGGGLVQAGGSLRLSCAASGFIFRWYAMGWSRQAPGKERELVAAISRSGDSTYYADSVKGRFTISRDNAKNTVYLQMNSLKPEDSAVYYCAADDRYYTYGYDYWGQGTQVTVSS | low polyreactivity
31 | QVQLVESGGGLVQAGGSLRLSCAAYGSLFDSNAMGWYRQAPRKERELVAAITVSGTSTYYADSVNGRFTISRDNEKNTVYLQMNSLKPEYTEVYYCAAAQEYLTDHDYWGQGTQVTVSS | low polyreactivity
32 | QVQLVESGGGLDQAGGSLRLSCAASGIIFWYNARGWYRQAPGKERELVAAINYGGSTNYADSVKGRFTISRDNAKNTVYLQMNSLKQEDTAVDYCNADRSVIHRGYIWQPGRNDYWGQGTQVNVSS | low polyreactivity
